Data reported in paper PMC12416549 (2024).

Target: T1, TNFR1 (Homo sapiens, UniProt P19438)
T1 chain: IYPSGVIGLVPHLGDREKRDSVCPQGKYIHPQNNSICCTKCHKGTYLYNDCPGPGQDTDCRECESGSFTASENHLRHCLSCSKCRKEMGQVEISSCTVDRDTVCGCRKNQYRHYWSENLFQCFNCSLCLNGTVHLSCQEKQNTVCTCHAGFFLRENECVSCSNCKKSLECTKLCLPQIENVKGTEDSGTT
Test: yeast display SC50

Row | Binder | apparent Kd (screen) [nM]
1 | T57L (designed binder) SMEEEVEKAAKEYEKKKKEAIEKHLEKLKAKDKEAAERFLKELEEAAKEYAKDEAKLMSEEEAKRRAKKYKEKVLLSELSEEEQKEIKEAEEKLVRTILKYVEEAAK | 0.107
2 | R65S (designed binder) SMEEEVEKAAKEYEKKKKEAIEKHLEKLKAKDKEAAERFLKELEEAAKEYAKDEAKTMSEEEAKSRAKKYKEKVLLSELSEEEQKEIKEAEEKLVRTILKYVEEAAK | 1.69
3 | S80Y (designed binder) SMEEEVEKAAKEYEKKKKEAIEKHLEKLKAKDKEAAERFLKELEEAAKEYAKDEAKTMSEEEAKRRAKKYKEKVLLSELYEEEQKEIKEAEEKLVRTILKYVEEAAK | 2.05
4 | E82C (designed binder) SMEEEVEKAAKEYEKKKKEAIEKHLEKLKAKDKEAAERFLKELEEAAKEYAKDEAKTMSEEEAKRRAKKYKEKVLLSELSECEQKEIKEAEEKLVRTILKYVEEAAK | 1.86
5 | A35F (designed binder) SMEEEVEKAAKEYEKKKKEAIEKHLEKLKAKDKEFAERFLKELEEAAKEYAKDEAKTMSEEEAKRRAKKYKEKVLLSELSEEEQKEIKEAEEKLVRTILKYVEEAAK | 0.956
6 | E103R (designed binder) SMEEEVEKAAKEYEKKKKEAIEKHLEKLKAKDKEAAERFLKELEEAAKEYAKDEAKTMSEEEAKRRAKKYKEKVLLSELSEEEQKEIKEAEEKLVRTILKYVREAAK | 0.539
7 | E62A (designed binder) SMEEEVEKAAKEYEKKKKEAIEKHLEKLKAKDKEAAERFLKELEEAAKEYAKDEAKTMSEEAAKRRAKKYKEKVLLSELSEEEQKEIKEAEEKLVRTILKYVEEAAK | 0.446
8 | M58R (designed binder) SMEEEVEKAAKEYEKKKKEAIEKHLEKLKAKDKEAAERFLKELEEAAKEYAKDEAKTRSEEEAKRRAKKYKEKVLLSELSEEEQKEIKEAEEKLVRTILKYVEEAAK | 12.5
9 | E49C (designed binder) SMEEEVEKAAKEYEKKKKEAIEKHLEKLKAKDKEAAERFLKELEEAAKCYAKDEAKTMSEEEAKRRAKKYKEKVLLSELSEEEQKEIKEAEEKLVRTILKYVEEAAK | 13.8
10 | A67N (designed binder) SMEEEVEKAAKEYEKKKKEAIEKHLEKLKAKDKEAAERFLKELEEAAKEYAKDEAKTMSEEEAKRRNKKYKEKVLLSELSEEEQKEIKEAEEKLVRTILKYVEEAAK | 7.07
11 | E45F (designed binder) SMEEEVEKAAKEYEKKKKEAIEKHLEKLKAKDKEAAERFLKELEFAAKEYAKDEAKTMSEEEAKRRAKKYKEKVLLSELSEEEQKEIKEAEEKLVRTILKYVEEAAK | 4.39
12 | E42D (designed binder) SMEEEVEKAAKEYEKKKKEAIEKHLEKLKAKDKEAAERFLKDLEEAAKEYAKDEAKTMSEEEAKRRAKKYKEKVLLSELSEEEQKEIKEAEEKLVRTILKYVEEAAK | 2.73
13 | Y13W (designed binder) SMEEEVEKAAKEWEKKKKEAIEKHLEKLKAKDKEAAERFLKELEEAAKEYAKDEAKTMSEEEAKRRAKKYKEKVLLSELSEEEQKEIKEAEEKLVRTILKYVEEAAK | 2.73
14 | E86S (designed binder) SMEEEVEKAAKEYEKKKKEAIEKHLEKLKAKDKEAAERFLKELEEAAKEYAKDEAKTMSEEEAKRRAKKYKEKVLLSELSEEEQKSIKEAEEKLVRTILKYVEEAAK | 0.718
